These results are taken from PMC6054995.

This test deals with Marchantia polymorpha 3-phosphoglycerate dehydrogenase, recombinant, without the transit peptide (Marchantia polymorpha). The test is described as follows: SEC; HiPrep 16/60 Sephacryl S-300 HR, 0.5 mL/min, 100 mM sodium phosphate buffer (pH 9.0); mass estimated from a standard curve of thyroglobulin, apoferritin, beta-amylase, albumin and carbonic anhydrase.

For “Marchantia polymorpha 3-phosphoglycerate dehydrogenase, recombinant, without the transit peptide (enzyme)”, the stoichiometry N is 4.
